Broadly, the Ki is a measure of affinity in units of concentration, obtained from inhibition or displacement.

A value given as a limit tells only on which side of the number the result lay.

human cathepsin K (HsCK) (human), sequence (P43235 115-329): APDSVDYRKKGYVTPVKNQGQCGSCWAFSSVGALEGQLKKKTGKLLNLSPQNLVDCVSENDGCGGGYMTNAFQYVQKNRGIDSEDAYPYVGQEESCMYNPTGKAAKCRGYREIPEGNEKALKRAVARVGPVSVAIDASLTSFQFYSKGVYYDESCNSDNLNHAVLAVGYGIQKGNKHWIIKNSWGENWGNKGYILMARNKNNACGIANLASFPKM

The target of the first test is recombinant F. hepatica cathepsin L1 (FhCL1), activated mature enzyme (Fasciola hepatica). Briefly: enzyme inhibition kinetics (Ki, Morrison equation).
On to “ppFhCL3_Glu^68/Arg^68 (domain or fragment)”, for which the Ki was 0.3 nM.
The same measure, in the same setting: to “recombinant FhCL3 propeptide (ppFhCL3), wild type (from UniProt A0A879R2T5 1-326) (domain or fragment)” belongs 0.04 nM; to “ppFhCL3_Leu^66/Gly^66 (domain or fragment)”, 0.05 nM; to “ppFhCL3_Tyr^46Lys^47/Ala^46Ala^47 (domain or fragment)”, 1.26 nM.

Another test has as its target recombinant F. hepatica cathepsin L2 (FhCL2), activated mature enzyme (Fasciola hepatica). In words: enzyme inhibition kinetics (Ki, Morrison equation).
For “ppFhCL3_Glu^68/Arg^68 (domain or fragment)”, the Ki was 0.02 nM.
Regarding “recombinant FhCL3 propeptide (ppFhCL3), wild type (from UniProt A0A879R2T5 1-326) (domain or fragment)”, the Ki was 0.004 nM.
For “ppFhCL3_Leu^66/Gly^66 (domain or fragment)”, the Ki was over 10000 nM.
Same read-out and setting: then “ppFhCL3_Tyr^46Lys^47/Ala^46Ala^47 (domain or fragment)”, with over 10000 nM.

For the next test, the target named is human cathepsin L (HsCL) (human). In words: enzyme inhibition kinetics (Ki, Morrison equation).
For the substance “ppFhCL3_Glu^68/Arg^68 (domain or fragment)”, the Ki came out at 6.04 nM.
Still for that read-out and setting: then “recombinant FhCL3 propeptide (ppFhCL3), wild type (from UniProt A0A879R2T5 1-326) (domain or fragment)”, with 26.6 nM; and “ppFhCL3_Leu^66/Gly^66 (domain or fragment)”, with over 10000 nM; and “ppFhCL3_Tyr^46Lys^47/Ala^46Ala^47 (domain or fragment)”, with over 10000 nM.

A further test addresses human cathepsin K (HsCK) (human) (UniProt P43235). Briefly: enzyme inhibition kinetics (Ki, Morrison equation).
“ppFhCL3_Glu^68/Arg^68 (domain or fragment)” came in with a Ki of 1.4 nM.
With “recombinant FhCL3 propeptide (ppFhCL3), wild type (from UniProt A0A879R2T5 1-326) (domain or fragment)”, the inhibition constant (Ki) stood at 2 nM.
Same read-out and setting: to “ppFhCL3_Leu^66/Gly^66 (domain or fragment)” belongs over 10000 nM; to “ppFhCL3_Tyr^46Lys^47/Ala^46Ala^47 (domain or fragment)”, over 10000 nM.

The next test has as its target recombinant F. hepatica cathepsin L3 (FhCL3), activated mature enzyme (Fasciola hepatica). Briefly: enzyme inhibition kinetics (Ki, Morrison equation).
As for “ppFhCL3_Glu^68/Arg^68 (domain or fragment)”, the Ki amounted to 0.002 nM.
Still for that read-out and setting: then “recombinant FhCL3 propeptide (ppFhCL3), wild type (from UniProt A0A879R2T5 1-326) (domain or fragment)”, with under 0.002 nM; and “ppFhCL3_Leu^66/Gly^66 (domain or fragment)”, with 8 nM; and “ppFhCL3_Tyr^46Lys^47/Ala^46Ala^47 (domain or fragment)”, with over 10000 nM.

In the next test the target is recombinant F. hepatica cathepsin L1 (FhCL1), activated mature enzyme (Fasciola hepatica).
Test: not given
As to “ppFhCL3_Glu^68/Arg^68 (domain or fragment)”, the percent inhibition of recombinant peptidase activity by 10 nM propeptide, pH 7.0 stood at 95%.
Still for that read-out and setting: to “recombinant FhCL3 propeptide (ppFhCL3), wild type (from UniProt A0A879R2T5 1-326) (domain or fragment)” belongs 98%; to “ppFhCL3_Leu^66/Gly^66 (domain or fragment)”, 90%; to “ppFhCL3_Tyr^46Lys^47/Ala^46Ala^47 (domain or fragment)”, 85%.

Another test deals with recombinant F. hepatica cathepsin L2 (FhCL2), activated mature enzyme (Fasciola hepatica).
Test: not given
“ppFhCL3_Glu^68/Arg^68 (domain or fragment)”: the percent inhibition of recombinant peptidase activity by 10 nM propeptide, pH 7.0 was under 20%.
Same read-out and setting: to “recombinant FhCL3 propeptide (ppFhCL3), wild type (from UniProt A0A879R2T5 1-326) (domain or fragment)” belongs 97%.

Another test deals with recombinant F. hepatica cathepsin L3 (FhCL3), activated mature enzyme (Fasciola hepatica).
Test: not given
“ppFhCL3_Glu^68/Arg^68 (domain or fragment)”: the percent inhibition of recombinant peptidase activity by 10 nM propeptide, pH 7.0 was under 20%.
Same read-out and setting: to “recombinant FhCL3 propeptide (ppFhCL3), wild type (from UniProt A0A879R2T5 1-326) (domain or fragment)” belongs 100%.

Another test deals with recombinant F. hepatica cathepsin L1 (FhCL1), activated mature enzyme (Fasciola hepatica).
Test: not given
This is another data set of the same source.
“33-mer synthetic peptide derived from the FhCL3 propeptide (p45 to p77)”: the percent reduction of peptidase activity by 500 nM 33-mer peptide, pH 7.0 was determined as 30%.

The target of another test is recombinant F. hepatica cathepsin L3 (FhCL3), activated mature enzyme (Fasciola hepatica).
Test: not given
This is another data set of the same source.
Turning to “33-mer synthetic peptide derived from the FhCL3 propeptide (p45 to p77)”, the percent reduction of peptidase activity by 500 nM 33-mer peptide, pH 7.0 amounted to 50%.

For the origin of these results see paper PMC7720491.
